Earlier results as cited in PMC2935699.

How the values were obtained:
[1] = target: Galanin receptor 3 (UniProt O60755)
[2] = target: Galanin receptor 2 (UniProt O43603)
[3] = target: Galanin receptor 1 (UniProt P47211)
Sequence of UniProt P47211 (P47211 whole entry): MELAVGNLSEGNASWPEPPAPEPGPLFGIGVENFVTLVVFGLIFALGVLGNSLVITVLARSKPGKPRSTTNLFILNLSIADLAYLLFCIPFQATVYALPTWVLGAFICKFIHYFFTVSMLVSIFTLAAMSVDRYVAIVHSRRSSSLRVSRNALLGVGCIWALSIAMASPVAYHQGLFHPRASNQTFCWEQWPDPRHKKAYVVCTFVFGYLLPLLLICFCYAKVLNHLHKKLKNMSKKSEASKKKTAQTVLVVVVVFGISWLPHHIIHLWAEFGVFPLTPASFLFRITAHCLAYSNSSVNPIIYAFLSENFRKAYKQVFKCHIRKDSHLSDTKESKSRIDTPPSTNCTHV

Sequence of UniProt O43603 (O43603 whole entry): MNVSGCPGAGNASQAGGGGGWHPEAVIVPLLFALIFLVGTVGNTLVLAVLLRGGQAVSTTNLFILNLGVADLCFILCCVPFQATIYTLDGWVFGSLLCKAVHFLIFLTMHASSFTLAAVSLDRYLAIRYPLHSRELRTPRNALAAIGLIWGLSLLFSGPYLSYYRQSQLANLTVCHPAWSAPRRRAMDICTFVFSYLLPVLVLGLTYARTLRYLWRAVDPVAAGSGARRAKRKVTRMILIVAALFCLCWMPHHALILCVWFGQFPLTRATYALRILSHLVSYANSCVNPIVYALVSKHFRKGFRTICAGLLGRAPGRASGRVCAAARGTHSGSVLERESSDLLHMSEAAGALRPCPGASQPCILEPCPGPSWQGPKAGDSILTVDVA
Sequence of UniProt O60755 (O60755 whole entry): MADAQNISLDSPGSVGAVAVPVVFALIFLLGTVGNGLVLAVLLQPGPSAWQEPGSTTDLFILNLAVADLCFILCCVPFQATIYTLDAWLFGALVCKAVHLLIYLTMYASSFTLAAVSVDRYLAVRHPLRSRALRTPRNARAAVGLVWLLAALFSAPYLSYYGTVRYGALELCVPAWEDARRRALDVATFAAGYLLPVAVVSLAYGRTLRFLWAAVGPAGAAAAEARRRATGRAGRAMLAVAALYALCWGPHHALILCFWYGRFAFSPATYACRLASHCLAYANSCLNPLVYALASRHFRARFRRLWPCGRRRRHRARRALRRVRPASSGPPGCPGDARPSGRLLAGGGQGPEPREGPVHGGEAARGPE

- Ki [1]: 49.6 nM
- Ki [2]: 5.66 nM
- Ki [3]: 4.8 nM
Substance: Galanin 1-16 1-16 (from UniProt P22466)
